Measurements taken from patent JP2021054739A, “ビオチン改変二量体とフタロシアニン染料とのコンジュゲート” (dated 2021).
Values belong to the molecule of their own block, whether it stands above or below them.

Tests used:
[1] = target: T1, CEACAM5 (Recombinant Human CEACAM-5/CD66e Protein) (Homo sapiens, UniProt P06731); assay: SPR (Biacore T200), CEA-V2122 on immobilised CEACAM5; assay type: binding
T1 construct: purchased R&D SYSTEMS
T1 sequence (P06731 35-702): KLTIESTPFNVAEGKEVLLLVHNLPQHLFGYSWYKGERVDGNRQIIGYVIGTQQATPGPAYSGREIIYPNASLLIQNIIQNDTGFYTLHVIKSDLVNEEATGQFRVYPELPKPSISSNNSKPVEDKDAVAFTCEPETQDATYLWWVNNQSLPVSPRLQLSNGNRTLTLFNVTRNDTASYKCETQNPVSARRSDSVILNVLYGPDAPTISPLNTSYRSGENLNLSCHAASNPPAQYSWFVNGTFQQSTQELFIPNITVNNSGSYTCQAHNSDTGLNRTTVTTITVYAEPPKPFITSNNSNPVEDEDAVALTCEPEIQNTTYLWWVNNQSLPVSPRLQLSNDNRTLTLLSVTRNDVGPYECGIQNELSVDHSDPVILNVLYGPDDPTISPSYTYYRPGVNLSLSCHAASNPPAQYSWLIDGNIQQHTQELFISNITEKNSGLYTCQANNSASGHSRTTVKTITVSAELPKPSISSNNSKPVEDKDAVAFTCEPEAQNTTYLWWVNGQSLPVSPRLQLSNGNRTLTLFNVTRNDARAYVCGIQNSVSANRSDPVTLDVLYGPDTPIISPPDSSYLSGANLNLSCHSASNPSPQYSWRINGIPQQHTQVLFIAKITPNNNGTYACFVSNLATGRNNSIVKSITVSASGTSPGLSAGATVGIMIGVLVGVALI

[2] = tested on: CEACAM5 on CEACAM5-positive MKN-45 cells and CEACAM5-negative DLD1 cells [CEACAM5陽性のヒト胃がん由来MKN-45細胞とCEACAM5陰性のヒト結腸がん由来DLD1細胞]; assay: Cell staining with FITC-labelled CEA-V2122 (In Cell Analyzer 6000); assay type: cell-based, human
[3] = SPR, Single-Cycle Kinetics, Bivalent Analyze fit, analyte CEA-V2122 1E-08 M to 6.25E-10 M

KD (kd1/ka1) ([1]; SPR, Single-Cycle Kinetics, Bivalent Analyze fit, KD = kd1/ka1): 1.078E-12
ka1 [1, 3]: 3.208E+5
kd1 [1, 3]: 3.461E-7
binding to CEACAM5 (in words) ([1]; from sensorgram and KD value, Fig. 3): 強く結合する
B1: CEA-V2122: anti-CEACAM5 scFv joined by amino acid linker GGGGSGGGG to streptavidin variant V2122 (SEQ ID NO: 3) (protein)
chain: QVKLEQSGAEVVKPGASVKLSCKASGFNIKDSYMHWLRQGPGQRLEWIGWIDPENGDTEYAPKFQGKATFTTDTSANTAYLGLSSLRPEDTAVYYCNEGTPTGPYYFDYWGQGTLVTVSSGGGGSGGGGSGGGGSENVLTQSPSSMSVSVGDRVNIACSASSSVPYMHWLQQKPGKSPKLLIYLTSNLASGVPSRFSGSGSGTDYSLTISSVQPEDAATYYCQQRSSYPLTFGGGTKLEIKGGGGSGGGGAEAGITGTWSDQLGDTFIVTAGADGALTGTYENAVGGAESRYVLTGRYDSAPATDGSGTALGWTVAWKNNSKNAHSATTWSGQYVGGADAKINTQWLLTSGTTNANAWKSTLVGHDTFTKVKPSAASHHHHHH

B2: CEA-V2122-FITC: CEA-V2122 labelled with FITC (Fluorescein Labeling Kit - NH2) (conjugate)
chain: B1 chain
recognition of CEACAM5 on the cell membrane surface (in words) ([2]; 20 nM CEA-V2122-FITC, 4℃, 30 min, Fig. 5): 細胞膜表面のCEACAM5を特異的に認識する
behaviour of CEACAM5 after CEA-V2122-FITC binding (in words) ([2]; MKN45 cells, time series, Fig. 6): 細胞膜表面に滞留する
